Target: Taggert virus (TAGV) viral ovarian tumor domain protease (vOTU) (Taggert virus (TAGV))
Assay: ITC

Which dH does the source give for “ubiquitin (Ub), wild type (from UniProt P0CG48 1-76) (natural protein)” here?
Its dH is -4.68 kcal/mol.

And the stoichiometry N?
Its stoichiometry N is 1.34 sites.

— publication PMC6343935
